The assay addresses GST (UniProt P08515 1-218 = GST). The assay can be described thus: pull-down on glutathione sepharose, Western blot with anti-T7. In general terms: Immunoblotting shows a protein as a band on a membrane.

The results in this text go back to patent publication US20060110801A1 (WISCONSIN ALUMNI RESEARCH FOUNDATION, published 2006).

GST, sequence (P08515 whole entry): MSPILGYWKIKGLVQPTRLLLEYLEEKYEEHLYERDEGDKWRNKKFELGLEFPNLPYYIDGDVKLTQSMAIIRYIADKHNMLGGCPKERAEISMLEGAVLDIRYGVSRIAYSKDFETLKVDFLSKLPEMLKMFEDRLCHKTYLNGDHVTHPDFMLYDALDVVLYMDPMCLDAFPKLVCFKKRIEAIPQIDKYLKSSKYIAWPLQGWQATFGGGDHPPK

B1: T7-ATR41-227 (fusion protein having a hexahistidine tag, a T7 tag, and amino acids 41 to 227 of ATR) (receptor)
chain: GGFDLYFILDKSGSVLHHWNEIYYFVEQLAHKFISPQLRMSFIVFSTRGTTLMKLTEDREQIRQGLEELQKVLPGGDTYMHEGFERASEQIYYENRQGYRTASVIIALTDGELHEDLFFYSEREANRSRDLGAIVYCVGVKDFNETQLARIADSKDHVFPVNDGFQALQGIIHSILKKSCIEILAAE
notes: also called the I domain; extracellular fragment of ATR
Turning to B1, the binding result is “no binding”.
